We go through two molecules from article doi:10.1101/2020.01.14.906479 (bioRxiv, 2020).

Square brackets hold non-standard residues; d marks the D form. Ends that are not written are not given here. pS = N[C@@H](COP(=O)(O)O)C(=O)O

The assay concerns the target T1, recombinant Plasmodium falciparum 14-3-3I (GST-14-3-3I fusion protein) (P. falciparum 3D7, UniProt C0H4V6 1-262).
T1 sequence (looked up): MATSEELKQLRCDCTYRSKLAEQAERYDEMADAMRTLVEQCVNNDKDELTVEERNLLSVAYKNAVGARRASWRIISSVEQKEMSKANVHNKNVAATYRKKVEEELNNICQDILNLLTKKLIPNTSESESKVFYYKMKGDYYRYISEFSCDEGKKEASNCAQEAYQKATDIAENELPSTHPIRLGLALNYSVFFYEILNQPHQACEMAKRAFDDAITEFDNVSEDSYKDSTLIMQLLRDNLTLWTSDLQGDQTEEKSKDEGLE
Nature of the assay: ITC. Background: ITC needs no label: the signal is the heat of the interaction.

Take ARSH[pS]YPA [phosphopeptide 1 (Mode I 14-3-3 recognition motif, ARSHpSYPA)]: the Ka was 1.7e+06 M⁻¹ and the dH was -11.3 ± 4.27 kcal/mol.
The matching figures for RLYH[pS]LPA [phosphopeptide 2 (Mode II 14-3-3 recognition motif, RLYHpSLPA)]: 830000 M⁻¹ and -1.52 ± 0.096 kcal/mol.
